{
  "source": "patent US9533026B2",
  "about": "“Polypeptide compounds for inhibiting angiogenesis and tumor growth” (VasGene Therapeutics, Inc., priority 2004, dated 2017)",
  "molecules": {"B1": {"name": "sB4: soluble EphB4 ectodomain protein, biotin labeled through carbohydrate chains; SP column fraction 3 (protein)", "chain": "LEETLLNTKLETADLKWVTFPQVDGQWEELSGLDEEQHSVRTYEVCDVQRAPGQAHWLRTGWVPRRGAVHVYATLRFTMLECLSLPRAGRSCKETFTVFYYESDADTATALTPAWMENPYIKVDTVAAEHLTRKRPGAEATGKVNVKTLRLGPLSKAGFYLAFQDQGACMALLSLHLFYKKCAQLTVNLTRFPETVPRELVVPVAGSCVVDAVPAPGPSPSLYCREDGQWAEQPVTGCSCAPGFEAAEGNTKCRACAQGTFKPLSGEGSCQPCPANSHSNTIGSAVCQCRVGYFRARTDPRGAPCTTPPSAPRSVVSRLNGSSLHLEWSAPLESGGREDLTYALRCRECRPGGSCAPCGGDLTFDPGPRDLVEPWVVVRGLRPDFTYTFEVTALNGVSSLATGPVPFEPVNVTTDREVPPAVSDIRVTRSSPSSLSLAWAVPRAPSGAVLDYEVKYHEKGAEGPSSVRFLKTSENRAELRGLKRGASYLVQVRARSEAGYGPFGQEHHSQTQLDESEGWREQLA"}, "B2": {"name": "polypegylated: fraction 1: polypegylated biotinylated sB4, linear PEG-succinimidyl propionate of about 20 kda (conjugate)", "chain": "B1 chain"}, "B3": {"name": "monopegylated: fraction 2: monopegylated biotinylated sB4, linear PEG-succinimidyl propionate of about 20 kda (conjugate)", "chain": "B1 chain"}, "B4": {"name": "CF2: EphB4 ECD version with deleted globular domain, SEQ ID NO:15 (protein)", "chain": "MELRVLLCWASLAAALEETLLNTKLETQLTVNLTRFPETVPRELVVPVAGSCVVDAVPAPGPSPSLYCREDGQWAEQPVTGCSCAPGFEAAEGNTKCRACAQGTFKPLSGEGSCQPCPANSHSNTIGSAVCQCRVGYFRARTDPRGAPCTTPPSAPRSVVSRLNGSSLHLEWSAPLESGGREDLTYALRCRECRPGGSCAPCGGDLTFDPGPRDLVEPWVVVRGLRPDFTYTFEVTALNGVSSLATGPVPFEPVNVTTDREVPPAVSDIRVTRSSPSSLSLAWAVPRAPSGAWLDYEVKYHEKGAEGPSSVRFLKTSENRAELRGLKRGASYLVQVRARSEAGYGPFGQEHHSQTQLDESEGWREQGGRSSLEGPRFEGKPIPNPLLGLDSTRTGHHHHHH", "modifications": "Recombinant B4-CF2"}, "B5": {"name": "GCF2: recombinant protein containing the complete ectopic part of EphB4, 6xHis tagged, SEQ ID NO:14 (protein)", "chain": "MELRVLLCWASLAAALEETLLNTKLETADLKWVTFPQVDGQWEELSGLDEEQHSVRTYEVCEVQRAPGQAHWLRTGWVPRRGAVHVYATLRFTMLECLSLPRAGRSCKETFTVFYYESDADTATALTPAWMENPYIKVDTVAAEHLTRKRPGAEATGKVNVKTLRLGPLSKAGFYLAFQDQGACMALLSLHLFYKKCAQLTVNLTRFPETVPRELVVPVAGSCVVDAVPAPGPSPSLYCREDGQWAEQPVTGCSCAPGFEAAEGNTKCRACAQGTFKPLSGEGSCQPCPANSHSNTIGSAVCQCRVGYFRARTDPRGAPCTTPPSAPRSVVSRLNGSSLHLEWSAPLESGGREDLTYALRCRECRPGGSCAPCGGDLTFDPGPRDLVEPWVVVRGLRPDFTYTFEVTALNGVSSLATGPVPFEPVNVTTDREVPPAVSDIRVTRSSPSSLSLAWAVPRAPSGAWLDYEVKYHEKGAEGPSSVRFLKTSENRAELRGLKRGASYLVQVRARSEAGYGPFGQEHHSQTQLDESEGWREQGSKRAILQIEGKPIPNPLLGLDSTRTGHHHHHH", "modifications": "Recombinant FL-hB4EC"}},
  "key": {"[1]": {"assay": "In vivo stability in mice after intravenous injection", "design": "species or system mouse", "conditions": "for stability in vivo relative to sB4 / EphB4 ectodomain: mice", "protocol": "The stability of the purified biotinylated sB4 and sB4-HSA were assayed in vivo. Each of the proteins were intravenously injected into the tail of mice in the amount of 0.5 nmoles per mouse. Blood from the eye of each mouse was taken in time frames of 15 min (0 days), 1, 2, 3 and 6 days. […] of obtained serum was used in binding assay with Ephrin-B2-Alkaline Phosphatase fusion protein and Streptavidin-coated magnetic beads as a solid phase. […] For example, one day after injection, the levels of sB4-HSA in the blood of the mice were 5-fold greater than those of sB4.\nFractions 1, 2 and 3 of biotinylated and PEGylated sB4 from the SP column purification, corresponding to polypegylated, monopegylated and unpegylated biotinylated sB4, were introduced by intravenous injection into mice in the amount of 0.5 nMoles/mouse. Blood from each mouse was taken in time frame of 10 min, 1, 2 and 3 days. […] of obtained serum was used in binding assay with Ephrin-B2-Alkaline Phosphatase fusion protein and Streptavidin-coated magnetic beads as a solid phase. Signals, obtained at 10 min were taken as 100%. The two mice for each protein were of a different strain."}, "EphrinB2 [2]": {"molecular_target": "T1, EphrinB2 (Homo sapiens, UniProt P52799)", "T1 construct": "protein fusion of Ephrin B2 ectodomain with placental alkaline phosphatase", "T1 sequence (P52799 28-229 limits assumed)": "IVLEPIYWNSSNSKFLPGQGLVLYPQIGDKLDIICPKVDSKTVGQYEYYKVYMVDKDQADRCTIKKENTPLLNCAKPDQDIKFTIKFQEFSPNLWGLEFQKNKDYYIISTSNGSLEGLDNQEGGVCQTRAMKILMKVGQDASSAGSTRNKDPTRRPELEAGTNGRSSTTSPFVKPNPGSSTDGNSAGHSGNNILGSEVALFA", "assay": "EphrinB2 (B2-AP) binding assay on affinity magnetic beads", "conditions": "for order of binding activity: SP column fractions 1, 2 and 3", "text": "To test whether the B4-HSA fusion property retained the ability of the EphB4 extracellular domain to bind to EphrinB2, the ability of the purified B4-HSA fusion was compared to that of GCF2F, GCF2, GC, CF and B4-Fc fusion, which comprises the extracellular domain of B4 fused to hIgG1 Fc as described in Example 1. Biotinylated or His-tag protein samples were inoculated with the corresponding affinity magnetic beads and B2-AP for an hour at room temperature, before addition of PnPP. Results of binding assays are shown on FIG. 67.\nFractions 1, 2 and 3 of biotinylated and PEGylated sB4 from the SP column purification, corresponding to polypegylated, monopegylated and unpegylated biotinylated sB4, were tested for their ability to bind EphrinB2 using the standard assay. Results of this experiment are shown on FIG. 72."}, "[3]": {"assay": "In vitro stability in mouse serum (retained B2-AP binding)", "assay_type": "in vitro ADME", "protocol": "Both soluble EphB4 ectodomain protein (sB4) and EphB4 ectodomain fused to HSA (HSA-sB4) were biotin labeled through carbohydrate chains using sodium meta-periodate as an oxidant and EZ-Link Biotin Hydrazide (PIERCE, Cat. #21339) according to manufacture's protocol. The in vitro stability of the biotinylated sB4 protein was tested by incubating […] with 40 μL of mouse serum at 37° C. for 0, 0.5, 1, 2 and 3 days. Two μL of magnetic beads and B2-AP was added for an extra hour at room temperature. After washing twice with buffer, pnPP was added for 1 hour.\nThe fractions were also tested for their stability in vitro. The fractions were tested for retention of EphrinB2 binding activity after incubation in mouse serum at 37° C. for three days."}, "EphrinB2 [4]": {"molecular_target": "T1, EphrinB2", "assay": "Ephrin B2-AP binding to immobilized EphB4EC proteins", "conditions": "B4 proteins immobilized on Ni2+-resin or nitrocellulose", "protocol": "10 μl of Ni-NTA-Agarose were incubated in microcentrifuge tubes with 50 μl of indicated amount of B4ECv3 diluted in binding buffer BB (20 mM Tris-HCl, 0.15 M NaCl, 0.1% bovine serum albumin pH 8) After incubation for 30 min on shaking platform, Ni-NTA beads were washed twice with 1.4 ml of BB, followed by application of 50 μl of B2-AP in the final concentration of 50 nM. Binding was performed for 30 min on shaking platform, and then tubes were centrifuged and washed one time with 1.4 ml of BB. Amount of precipitated AP was measured colorimetrically after application of PNPP.\nTo confirm ability of the purified recombinant proteins to bind Ephrin B2, they were tested in an in vitro binding assay. As expected, GC, GCF1 and GCF2, but not CF2 are binding the cognate ligand Ephrin B2 as confirmed by interaction between Ephrin B2-alkaline phosphatase (Ephrin B2-AP) fusion protein with the B4 proteins immobilized on Ni^2+-resin or on nitrocellulose membrane (FIG. 17)."}, "EphB4 receptor": {"tested_on": "EphB4 receptor", "assay": "Cell-based EphB4 tyrosine kinase assay in PC3 cells", "design": "species or system human", "conditions": "Ephrin B2-Fc ligand preincubated with protein", "protocol": "All four proteins were also tested for their ability to block ligand-dependent dimerization and activation of Eph B4 receptor kinase in PC3 cells. The PC3 human prostate cancer cell line is known to express elevated levels of human Eph B4. Stimulation of PC3 cells with Ephrin B2 IgG Fc fusion protein leads to a rapid induction of tyrosine phosphorylation of the receptor. However, preincubation of the ligand with GCF2, GCF1 or GC, but not CF2 proteins suppresses subsequent EphB4 autophosphorylation.\nThe human prostate carcinoma cell line PC3 cells were maintained in RPMI medium with 10% dialyzed fetal calf serum and 1% penicillin/streptomycin/neomycin antibiotics mix. Cells were maintained at 37° C. in a humidified atmosphere of 5% CO2/95% air. Typically, cells were grown in 60 mm dishes until confluency and were either treated with mouse Ephrin B2-Fc fusion at 1 μg/ml in RPMI for 10 min to activate EphB4 receptor or plain medium as a control. To study the effect of different derivatives of soluble EphB4 ECD proteins on EphB4 receptor activation, three sets of cells were used. In the first set, cells were treated with various proteins (5 proteins; GC, GCF1, GCF2, GCF2-F, CF2) at 5 μg/ml for 20 min. In the second set of cells, prior to application, proteins were premixed with ephrinB2-Fc at 1:5 (EphB4 protein:B2-Fc) molar ratio, incubated for 20 min and applied on cells for 10 min. In the third set of cells, cells were first treated with the proteins for 20 min at 5 μg/ml, media was replaced with fresh media containing 1 μg/ml of EphrinB2-Fc and incubated for another 10 min.\nAfter the stimulation, cells were immediately harvested with protein extraction buffer containing 20 mM Tris-HCl, pH 7.4, 150 mM NaCl, 1% (v/v) Triton X100, 1 mM EDTA, 1 mM PMSF, 1 mM Sodium vanadate. Protein extracts were clarified by centrifugation at 14,000 rpm for 20 min at 4° C. Clarified protein samples were incubated overnight with protein A/G coupled agarose beads pre-coated with anti-EphB4 monoclonal antibodies. The IP complexes were washed twice with the same extraction buffer containing 0.1% Triton X100. The immunoprecipitated proteins were solubilized in 1×SDS-PAGE sample loading buffer and separated on 10% SDS-PAGE. For EphB4 receptor activation studies, electroblotted membrane was probed with anti-pTyr specific antibody 4G10 at 1:1000 dilution followed by Protein G-HRP conjugate at 1:5000 dilutions."}, "[5]": {"conditions": "retention of EphrinB2 binding, mouse serum, 37° C., three days"}},
  "note": "Read-outs that look alike come from different tables or passages of the source.",
  "data": [
    {"molecule": "B4-HSA: EphB4 ectodomain fused to human serum albumin, mature form SEQ ID NO:19", "values": [
      {"measurement": "stability in vivo relative to sB4 / EphB4 ectodomain", "setting": "[1]", "result": "superior stability"},
      {"measurement": "levels in the blood relative to sB4", "setting": "[1]; one day after injection, i.v. 0.5 nmoles per mouse", "result": 5, "unit": "fold"},
      {"measurement": "binding activity towards EphrinB2", "setting": "EphrinB2 [2]", "result": "retain most of its binding activity"},
      {"measurement": "binding to EphrinB2 compared with the B4-Fc fusion", "setting": "EphrinB2 [2]", "result": "superior"}
    ]},
    {"molecule": "EphB4 ectodomain fusion to the C-terminus of HSA: EphB4 ectodomain fused to the C-terminus of HSA", "values": [
      {"measurement": "stability in vivo relative to sB4 / EphB4 ectodomain", "setting": "[1]", "result": "enhanced stability"},
      {"measurement": "binding activity towards EphrinB2", "setting": "EphrinB2 [2]", "result": "retain the ability to bind"}
    ]},
    {"molecule": "B1", "values": [
      {"measurement": "B2 binding activity lost", "setting": "[3]", "result": "less than 10%"},
      {"measurement": "order of in vitro stability", "setting": "[3]", "result": "monopegylated>unpegylated>polypegylated"},
      {"measurement": "order of binding activity", "setting": "EphrinB2 [2]", "result": "Unpegylated>monopegylated>polypegylated"}
    ]},
    {"molecule": "B2", "values": [
      {"measurement": "order of in vitro stability", "setting": "[3]; [5]", "result": "monopegylated>unpegylated>polypegylated"},
      {"measurement": "order of binding activity", "setting": "EphrinB2 [2]", "result": "Unpegylated>monopegylated>polypegylated"}
    ]},
    {"molecule": "B3", "values": [
      {"measurement": "order of in vitro stability", "setting": "[3]; [5]", "result": "monopegylated>unpegylated>polypegylated"},
      {"measurement": "order of binding activity", "setting": "EphrinB2 [2]", "result": "Unpegylated>monopegylated>polypegylated"}
    ]},
    {"molecule": "B4", "values": [
      {"measurement": "binding the cognate ligand Ephrin B2", "setting": "EphrinB2 [4]", "result": "not"},
      {"measurement": "EphB4 autophosphorylation", "setting": "EphB4 receptor", "result": "not"}
    ]},
    {"molecule": "B5", "values": [
      {"measurement": "binding the cognate ligand Ephrin B2", "setting": "EphrinB2 [4]", "result": "binding"},
      {"measurement": "EphB4 autophosphorylation", "setting": "EphB4 receptor", "result": "suppresses"}
    ]}
  ]
}
